Target: T1, human CD112-Fc fusion protein (human, UniProt Q92692 32-360)
T1 sequence (looked up): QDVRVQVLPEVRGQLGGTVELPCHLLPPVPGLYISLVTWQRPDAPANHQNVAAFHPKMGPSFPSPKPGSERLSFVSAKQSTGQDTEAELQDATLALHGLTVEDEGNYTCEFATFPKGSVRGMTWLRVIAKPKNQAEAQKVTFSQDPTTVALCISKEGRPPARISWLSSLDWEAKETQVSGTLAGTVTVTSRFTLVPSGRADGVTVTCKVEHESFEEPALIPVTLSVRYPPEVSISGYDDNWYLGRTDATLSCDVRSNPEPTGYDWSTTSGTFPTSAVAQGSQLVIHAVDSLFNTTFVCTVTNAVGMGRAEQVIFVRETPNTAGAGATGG
Experiment: competition by flow cytometry on protein-coated beads

B1: human CD226-Fc fusion protein (Fc fusion, UniProt Q15762 19-254, looked up)
chain: EEVLWHTSVPFAENMSLECVYPSMGILTQVEWFKIGTQQDSIAIFSPTHGMVIRKPYAERVYFLNSTMASNNMTLFFRNASEDDVGYYSCSLYTYPQGTWQKVIQVVQSDSFEAAVPSNSHIVSEPGKNVTLTCQPQMTWPVQAVRWEKIQPRQIDLLTYCNLVHGRNFTSKFPRQIVSNCSHGRWSVIVIPDVTVSDSGLYRCYLQASAGENETFVMRLTVAEGKTDNQYTLFVA
Q: Does B1 bind?
A: binds

Reference: article PMC4749091 (The Journal of Experimental Medicine, 2016)
